The source of these data is publication doi:10.1101/2020.12.21.423864.

This assay addresses Cadherin-11 extracellular domain 1 (Cad11-EC1), wild type, residues 1-98. Nature of the assay: NMR.

The stoichiometry N is a count of units in the complex or per binding partner. In turn, “Cadherin-11 extracellular domain 1 (Cad11-EC1), wild type, residues 1-98 (domain or fragment)” registered a stoichiometry N of 2.
